# Patent EP4626929A2 (dated 2025)
# Biological target: BTLA on human primary B cells (human, UniProt Q7Z6A9 31-289)
# Assay: cell-based or functional assay
binder,measurement,value
"BTLA agonist antibody M10825 (antibody, human IgG2, kappa) heavy: QITLKESGPTLVKPTQTLTLTCTFSGFSLSTSGVGVGWIRQPPGKALEWLAQEFWTGDKRYSPSLKSRLTITKDTSKNQVVLTMTNMDPVDTATYYCTHKLGMNYFDYWGQGTLVTVSSASTKGPSVFPLAPCSRSTSESTAALGCLVKDYFPEPVTVSWNSGALTSGVHTFPAVLQSSGLYSLSSVVTVPSSNFGTQTYTCNVDHKPSNTKVDKTVERKCCVECPPCPAPPVAGPSVFLFPPKPKDTLMISRTPEVTCVVVDVSHEDPEVQFNWYVDGVEVHNAKTKPREEQFNSTFRVVSVLTVVHQDWLNGKEYKCKVSNKGLPAPIEKTISKTKGQPREPQVYTLPPSREEMTKNQVSLTCLVKGFYPSDIAVEWESNGQPENNYKTTPPMLDSDGSFFLYSKLTVDKSRWQQGNVFSCSVMHEALHNHYTQKSLSLSPG light: not shown",IC50 of inhibition of human primary B cell proliferation,10.5 nM
